According to patent US7939292B2, “Modified heparinase III and methods of sequencing therewith” (Massachusetts Institute of Technology, priority 2000, dated 2011):

Key:
B16BL6 cells [1] = assay: FGF-induced proliferation of B16BL6 cells in vitro; type: cell-based
LLC cells = assay: Lung metastasis of LLC cells injected through tail vein; type: in vivo, mice; conditions: cells incubated with enzyme before tail vein injection
Description: (§1) To ensure that these observations were not limited to the tumor model chosen, hep III was used to treat mice bearing Lewis lung carcinoma (LLC) tumors. Growth curves of primary tumor growth for LLC tumor in C57BL/6 mice treated with either PBS or heparinase III were plotted. 4×10^5 log phase LLC cells were injected subcutaneously to the flank of mice on day 1. Daily injection of 0.1 ml of either PBS or 2 mg/ml recombinantly expressed heparinase III started at the day 4 and continued throughout the experiment. At day 8, osmotic pumps (100 μl capacity delivering at 0.5 μl per hour) containing PBS or 3 mg/ml hep III were implanted subcutaneously at a place remote from the tumor site. Mice were sacrificed at day 20. Lung metastasis of LLC cells injected through tail vein were quantitated as number of lung nodules. Log growth LLC cells were trypsinized for 30 seconds and resuspended in PBS to a final concentration of 1×10^6 per ml. For experimental group, cells were incubated with […] hep III for 30 minutes at 37° C. before injecting 0.2 ml of cell suspension via tail vein. Mice were euthanized 12 days after tail vein injections, lungs were harvested, rinsed in tap water and fixed overnight in Bouin's solution. The number of nodules on lung surface was counted with the aid of a dissection microscope.

Erk-1, 2 [2] = assay: Total and phosphorylated Erk-1, 2 in heparinase-treated B16BL6 tumor; design: species or system mice; conditions: mouse, in vivo
Description: e. Level of total and phosphorylated Erk-1, 2 in heparinase-treated B16BL6 tumor. Tumor homogenates were prepared and processed as described in c. The supernatant was used for total protein concentration assay and immunoblotting. The immunoblot was detected as described in a.

FAK = assay: Activation of FAK in B16BL6 tumor; design: species or system mice; conditions: mouse, in vivo
From the text: d. Effect of heparinase treatment on activation of FAK in B16BL6 tumor. The FAK protein was immunoprecipitated with mouse anti-FAK monoclonal antibody (Transduction Laboratories, Lexington, Ky.) according to the procedures described above. The phosphorylated FAK was detected using phosphotyrosine specific antibody RC20.

Akt = Akt activation in B16BL6 tumor; design: species or system mice; conditions: mouse, in vivo
Description: f. Effect of heparinase treatment on Akt activation. The primary tumor was treated and processed as described above. Akt antibody and phospho-Akt antibody from New England Biolabs were used to probe the immunoblot.

[3] = tested on: Lewis lung carcinoma (LLC) tumors; assay: Primary tumor growth of Lewis lung carcinoma (LLC) in mice; type: in vivo; conditions: 12 mg/kg per day
Description: as §1

B16BL6 cells [4] = assay: Growth in mice of B16BL6 cells after heparinase removal of the HLGAG coat; type: in vivo; conditions: HLGAG coat removed
From the text: There are two possible mechanisms by which heparinase may be acting on tumor cells. For instance, heparinase III treatment of cells may result in cells losing their unique surface HLGAG coat and this directly or indirectly may impinge on their ability to grow or metastasize. On the other hand heparinase III treatment of cells may also result in the generation of distinct HLGAG fragments, and these fragments could then directly or indirectly modulate tumor cell function. It was thought that heparinase III may function though either one of these mechanisms or through some combination of these mechanisms. To investigate the mechanisms of action further, we treated B16BL6 cells with either heparinases I or III, to remove the HLGAG coat on the tumor cell surface.
In further support of this conclusion ex vivo digestion of the HLGAG coat present on tumor cells with either heparinase, followed by centrifugation and resuspension in PBS to remove the enzyme and HLGAG fragments released from the cell surface, prior to in vivo injection results in the cells being functionally identical to controls. Thus the released tumor cell HLGAG fragments appear to play the key role in modulating tumor growth and metastasis.

Erk-1, 2 [5] = assay: Erk-1, 2 activation in FGF2 stimulated B16BL6 cells (immunoblot); type: cell-based; conditions: enzyme 200 nM 30 min before 50 ng/ml FGF2
Description: a. Methods: B16BL6 cells in 10 cm culture dishes were serum starved for 48 hours before stimulation with 50 ng/ml FGF2. Cells were stimulated for 20 minutes before whole cell lysates were prepared with 1 ml modified RIPA buffer containing various enzyme inhibitors (50 mM Tris-HCl, pH 7.4, 1% NP-40, 0.25% Na-deoxycholate, 150 mM NaCl, 1 mM EDTA, 1 mM PMSF, 1 μg/ml aprotinin, leupeptin, and pepstatin, 1 mM activated Na3VO4, 1 mM NaF). Protein concentration in the lysate was determined using the Bio-Rad protein assay kit (BioRad) and adjusted accordingly for electrophoresis analysis. For the heparinase treated groups, cells were treated with either hep I or hep III (200 nM) for 30 min at 37° C. prior to addition of FGF2. The immunoblot was probed with anti-Erk-1, 2 or anti-phospho-Erk-1, 2 antibody (New England Biolabs; MA) and detected by anti-rabbit IgG conjugated to HRP using SuperSignal West Pico Chemiluminescent substrate (Pierce, Ill.).

FGFR1 = FGFR1 phosphorylation in B16BL6 tumor samples; design: species or system mice; conditions: mouse, in vivo
Description: c. Effect of treatment of tumor with hep I and hep III in FGFR1 activation compared to PBS. Level of phosphorylated FGFR1 in tumor samples was assessed by standard immunoprecipitation followed by Westernblotting with phosphotyrosine specific antibody. Primary B16BL6 tumors were grown and treated as described earlier and at day 15 the tumor was harvested in cold modified RIPA buffer containing enzyme inhibitors and homogenized. The homogenates were past through 25-gauge needle 3 times and centrifuged. The supernatant was adjusted for protein concentration using the Bio-Rad protein assay kit (Bio-Rad). FGFR1 was immunoprecipitated with poly-clonal anti-FGFR1 antibody (Santa Cruz Biotechnology, Inc., CA). Samples were then pelleted, washed, and eluted from the beads by addition of sample buffer and boiled for 3 minutes (Kapila, Y. L., Wang, S. & Johnson, P. W. Mutations in the heparin binding domain of fibronectin in cooperation with the V region induce decreases in pp125(FAK) levels plus proteoglycan-mediated apoptosis via caspases. J Biol Chem 274, 30906-13 (1999).). After electrophoresis, the gel was transferred to nitrocellulose membrane by standard methods. The immunoblot was probed with phosphotyrosine specific antibody conjugated to HRP (RC20; Transduction Laboratories, Lexington, Ky.) and developed with SuperSignal West Pico Chemiluminescent substrate. […]

B1: heparinase III: HLGAG degrading enzyme from Flavobacterium heparinum (EC 4.2.2.8), SEQ ID NO:2; cleaves heparan sulfate (protein, listed as Pedobacter heparinus)
chain: MTTKIFKRIIVFAVIALSSGNILAQSSSITRKDFDHINLEYSGLEKVNKAVAAGNYDDAAKALLAYYREKSKAREPDFSNAEKPADIRQPIDKVTREMADKALVHQFQPHKGYGYFDYGKDINWQMWPVKDNEVRWQLHRVKWWQAMALVYHATGDEKYAREWVYQYSDWARKNPLGLSQDNDKFVWRPLEVSDRVQSLPPTFSLFVNSPAFTPAFLMEFLNSYHQQADYLSTHYAEQGNHRLFEAQRNLFAGVSFPEFKDSPRWRQTGISVLNTEIKKQVYADGMQFELSPIYHVAAIDIFLKAYGSAKRVNLEKEFPQSYVQTVENMIMALISISLPDYNTPMFGDSWITDKNFRMAQFASWARVFPANQAIKYFATDGKQGKAPNFLSKALSNAGFYTFRSGWDKNATVMVLKASPPGEFHAQPDNGTFELFIKGRNFTPDAGVFVYSGDEAIMKLRNWYRQTRIHSTLTLDNQNMVITKARQNKWETGNNLDVLTYTNPSYPNLDHQRSVLFINKKYFLVIDRAIGEATGNLGVHWQLKEDSNPVFDKTKNRVYTTYRDGNNLMIQSLNADRTSLNEEEGKVSYVYNKELKRPAFVFEKPKKNAGTQNFVSIVYPYDGQKAPEISIRENKGNDFEKGKLNLTLTINGKQQLVLVP
- FGF-induced proliferation of B16BL6 cells (B16BL6 cells [1]): inhibit FGF-induced proliferation
- colonization of lungs by LLC cells (LLC cells): inhibited the LLC cells to colonize in the lungs
- level of activated Erk-1, 2 in primary tumor (Erk-1, 2 [2]): lower level of activated Erk-1, 2
- FAK activation in tumor (FAK): inhibited FAK activation
- activation of Akt in tumor (Akt): no change in activation of Akt
- LLC tumor growth [3]: inhibition in tumor growth
- ability of treated B16BL6 cells to grow in mice compared to untreated cells (B16BL6 cells [4]): no effect
- Erk-1, 2 activation upon FGF2 stimulation (Erk-1, 2 [5]): decreased Erk-1, 2 activation
- phosphorylation of FGFR1 in primary tumor (FGFR1): inhibited phosphorylation of FGFR1
